Assay results: patent US20110136811A1, “PROKINETICIN 1 RECEPTOR” (published 2011)

Molecular target: rat PK1 receptor, endogenous in rat ileum (rat, UniProt Q8R416)
Assay: cell-based or functional assay

B1: PK1 ligand preparation (recombinant human Prokineticin 1 after enterokinase removal of the N-terminal FLAG tag) (ligand)
chain: AVITGACERDVQCGAGTCCAISLWLRGLRMCTPLGREGEECHPGSHKVPFFRKRKHHTCPCLPNLLCSRFPDGRYRCSMDLKNINF
  EC50 of the early contractile response of isolated rat ileum: 87.8 nM
  EC50 of the late contractile response of isolated rat ileum: 72.4 nM
